Assay results: PMC13542264

Experiments:
[1] = biological target: GCN4-GlyR, GCN4 receptor model for the glycine receptor β subunit; experiment: co-sedimentation; sedimentation assay of in vitro phase separation: proteins mixed in 25 mM Tris pH 7.4, 150 mM NaCl, 10 min 25 °C, 17,000 x g 10 min 4 °C; pellet and supernatant on Coomassie gels; gephyrin oxidised or reduced
[2] = biological target: His-gephyrin, rat gephyrin P1, wild type, full length (rat); experiment: SEC; analytical Superose 6 increase 5/10, 4 °C, 50 mM Tris/HCl, 300 mM NaCl pH 7.4; protein reduced with 1 mM TCEP, also the oxidised peak collected and re-reduced
[3] = biological target: gephyrin, endogenous in mouse brain (mouse (endogenous in brain)) (UniProt Q8BUV3); experiment: non-reducing SDS-PAGE and Western blot; brain lysates of mice perfused with NEM-containing PBS; SDS sample buffer with 5 mM DTT or without reductant; shows only multimers that survive SDS

Substance | percent of gephyrin in the pellet fraction [1] [%] | stoichiometry N [2] | fractional abundance of multimeric gephyrin [3] [%]
His-gephyrin, rat gephyrin P1, wild type, full length (natural protein) | 60 | 6 | 
gephyrin, endogenous in mouse brain (from UniProt Q8BUV3 1-769) (natural protein) |  |  | 20
